Results as given in paper PMC9468648, “Profiling of transcriptional regulators associated with starch biosynthesis in sorghum (Sorghum bicolor L.)”.

Columns and labels:
Assay in all cases: EMSA; Chemiluminescent EMSA Kit (Beyotime) per manufacturer's instructions; buffer, salt, pH and temperature not stated
Conditions in all cases: protein: recombinant; tags: His (pET32a fusion); chain copies: 2; label: 5' biotin; blunt
[1] = target: T1, SORBI_3005G056300 (NAC TF) (UniProt C5Y5Q6 1-283)
T1 sequence: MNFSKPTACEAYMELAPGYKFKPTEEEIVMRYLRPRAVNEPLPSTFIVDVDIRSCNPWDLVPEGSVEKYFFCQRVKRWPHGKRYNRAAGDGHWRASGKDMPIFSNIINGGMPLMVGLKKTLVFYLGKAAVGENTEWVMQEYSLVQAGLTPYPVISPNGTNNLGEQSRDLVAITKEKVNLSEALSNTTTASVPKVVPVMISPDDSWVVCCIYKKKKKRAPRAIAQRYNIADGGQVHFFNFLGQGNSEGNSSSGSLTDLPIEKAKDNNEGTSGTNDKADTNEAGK

[2] = target: T2, SORBI_3003G105600 (NAC TF) (UniProt C5XF21 1-400)
T2 sequence: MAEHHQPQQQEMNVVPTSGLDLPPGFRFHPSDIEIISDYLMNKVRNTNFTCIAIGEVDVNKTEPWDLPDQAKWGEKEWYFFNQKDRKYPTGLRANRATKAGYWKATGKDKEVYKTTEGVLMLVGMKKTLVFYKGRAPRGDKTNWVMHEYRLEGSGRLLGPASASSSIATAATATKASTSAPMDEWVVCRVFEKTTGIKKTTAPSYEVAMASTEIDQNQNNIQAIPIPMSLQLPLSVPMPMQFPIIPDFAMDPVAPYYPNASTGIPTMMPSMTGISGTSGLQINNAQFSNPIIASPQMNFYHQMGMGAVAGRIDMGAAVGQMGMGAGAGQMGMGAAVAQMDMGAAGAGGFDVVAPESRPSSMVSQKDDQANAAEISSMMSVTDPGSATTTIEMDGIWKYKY

[3] = target: T3, SORBI_3009G086800 (NAC TF) (UniProt C5YV73 1-402)
T3 sequence: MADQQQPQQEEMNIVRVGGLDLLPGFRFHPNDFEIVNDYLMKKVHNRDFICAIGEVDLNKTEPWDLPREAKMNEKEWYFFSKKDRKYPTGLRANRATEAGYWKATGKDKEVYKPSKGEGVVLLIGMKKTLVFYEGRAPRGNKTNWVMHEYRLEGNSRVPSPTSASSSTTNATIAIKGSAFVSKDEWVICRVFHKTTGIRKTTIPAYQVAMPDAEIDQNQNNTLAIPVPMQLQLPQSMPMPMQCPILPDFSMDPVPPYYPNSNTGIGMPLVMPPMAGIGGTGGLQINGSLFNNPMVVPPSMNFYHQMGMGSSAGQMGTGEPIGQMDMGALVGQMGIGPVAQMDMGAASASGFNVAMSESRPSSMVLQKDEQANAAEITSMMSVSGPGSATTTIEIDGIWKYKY

Measured: binding result

B1: 4x CACGCAA repeat probe (dsDNA)
DNA 1: TCACGCAACACGCAACACGCAACACGCAAG
DNA 2: CTTGCGTGTTGCGTGTTGCGTGTTGCGTGA
binds: [1] | [2] | [3]
